Patent publication US20250320281A1

What was measured:
Assay in all cases: cell-based or functional assay
[1] = target: HIV-1 envelope glycoprotein (Env) of isolate APV6, clade B (HIV-1)
[2] = target: HIV-1 envelope glycoprotein (Env) of isolate MGRM-C-028, clade C (HIV-1)
[3] = target: HIV-1 envelope glycoprotein (Env) of isolate 93UG077, clade A (HIV-1)
[4] = target: HIV-1 envelope glycoprotein (Env) of isolate MGRM-D-001, clade D (HIV-1)
[5] = target: HIV-1 envelope glycoprotein (Env) of isolate APV17, clade B (HIV-1)
[6] = target: HIV-1 envelope glycoprotein (Env) of isolate 92TH021, clade AE (HIV-1)
[7] = target: HIV-1 envelope glycoprotein (Env) of isolate 94UG103, clade A (HIV-1)
[8] = target: HIV-1 envelope glycoprotein (Env) of isolate MGRM-C-027, clade C (HIV-1)
[9] = target: HIV-1 envelope glycoprotein (Env) of isolate MGRM-C-026, clade C (HIV-1)
[10] = target: HIV-1 envelope glycoprotein (Env) of isolate JRCSF, clade B (HIV-1) (UniProt P20871)
[11] = target: HIV-1 envelope glycoprotein (Env) of isolate APV13, clade B (HIV-1)
[12] = target: HIV-1 envelope glycoprotein (Env) of isolate 92BR020, clade B (HIV-1)
[13] = target: HIV-1 envelope glycoprotein (Env) of isolate 93IN905, clade C (HIV-1)
[14] = target: HIV-1 envelope glycoprotein (Env) of isolate 92RW020, clade A (HIV-1)
[15] = target: HIV-1 envelope glycoprotein (Env) of isolate NL43, clade B (HIV-1)
[16] = target: aMLV envelope protein (negative control pseudovirus)
[17] = target: HIV-1 envelope glycoprotein (Env) of isolate CMU02, clade AE (HIV-1)
[18] = target: HIV-1 envelope glycoprotein (Env) of isolate 92UG024, clade D (HIV-1)
[19] = target: HIV-1 envelope glycoprotein (Env) of isolate MGRM-A-010, clade A (HIV-1)
[20] = target: HIV-1 envelope glycoprotein (Env) of isolate MGRM-D-018, clade D (HIV-1)
[21] = target: HIV-1 envelope glycoprotein (Env) of isolate 92UG005, clade D (HIV-1)
[22] = target: HIV-1 envelope glycoprotein (Env) of isolate JRFL, clade B (HIV-1)
[23] = target: HIV-1 envelope glycoprotein (Env) of isolate MGRM-AG-005, clade AG (HIV-1)

B1: PGT-135 (5343_B08; 5344_E16) human monoclonal anti-HIV antibody (antibody, V domains shown)
VH: QLQMQESGPGLVKPSETLSLSCTVSGDSIRGGEWGDKDYHWGWVRHSAGKGLEWIGSIHWRGTTHYKESLRRRVSMSIDTSRNWFSLRLASVTAADTAVYFCARHRHHDVFMLVPIAGWFDVWGPGVQVTVSS
VL: EIVMTQSPDTLSVSPGETVTLSCRASQNINKNLAWYQYKPGQSPRLVIFETYSKIAAFPARFVASGSGTEFTLTINNMQSEDVAVYYCQQYEEWPRTFGQGTKVDIK
0.054 µg/mL: IC80 (neutralization of pseudovirus) [18]
0.113 µg/mL: IC50 (neutralization of pseudovirus) [10]
0.157 µg/mL: IC50 (neutralization of pseudovirus) [14]
0.0139 µg/mL: IC50 (neutralization of pseudovirus) [18]
8.3 µg/mL: IC95 (neutralization of pseudovirus) [10]
0.503 µg/mL: IC80 (neutralization of pseudovirus) [10]
0.331 µg/mL: IC95 (neutralization of pseudovirus) [9]
3.46 µg/mL: IC80 (neutralization of pseudovirus) [14]
0.72 µg/mL: IC95 (neutralization of pseudovirus) [12]
1.47 µg/mL: IC90 (neutralization of pseudovirus) [10]
0.545 µg/mL: IC50 (neutralization of pseudovirus) [11]
0.0123 µg/mL: IC50 (neutralization of pseudovirus) [9]
0.0648 µg/mL: IC80 (neutralization of pseudovirus) [13]
0.2 µg/mL: IC80 (neutralization of pseudovirus) [20]
0.0562 µg/mL: IC80 (neutralization of pseudovirus) [9]
0.43 µg/mL: IC90 (neutralization of pseudovirus) [12]
0.104 µg/mL: IC50 (neutralization of pseudovirus) [12]
0.267 µg/mL: IC95 (neutralization of pseudovirus) [18]
0.0433 µg/mL: IC50 (neutralization of pseudovirus) [20]
> 10 µg/mL: IC50 (neutralization of pseudovirus) [1] | IC80 (neutralization of pseudovirus) [1] | IC90 (neutralization of pseudovirus) [1] | IC95 (neutralization of pseudovirus) [1] | IC80 (neutralization of pseudovirus) [2] | IC90 (neutralization of pseudovirus) [2] | IC95 (neutralization of pseudovirus) [2] | IC50 (neutralization of pseudovirus) [3] | IC80 (neutralization of pseudovirus) [3] | IC90 (neutralization of pseudovirus) [3] | IC95 (neutralization of pseudovirus) [3] | IC50 (neutralization of pseudovirus) [4] | IC80 (neutralization of pseudovirus) [4] | IC90 (neutralization of pseudovirus) [4] | IC95 (neutralization of pseudovirus) [4] | IC50 (neutralization of pseudovirus) [5] | IC80 (neutralization of pseudovirus) [5] | IC90 (neutralization of pseudovirus) [5] | IC95 (neutralization of pseudovirus) [5] | IC50 (neutralization of pseudovirus) [6] | IC80 (neutralization of pseudovirus) [6] | IC90 (neutralization of pseudovirus) [6] | IC95 (neutralization of pseudovirus) [6] | IC50 (neutralization of pseudovirus) [7] | IC80 (neutralization of pseudovirus) [7] | IC90 (neutralization of pseudovirus) [7] | IC95 (neutralization of pseudovirus) [7] | IC50 (neutralization of pseudovirus) [8] | IC80 (neutralization of pseudovirus) [8] | IC90 (neutralization of pseudovirus) [8] | IC95 (neutralization of pseudovirus) [8] | IC80 (neutralization of pseudovirus) [11] | IC90 (neutralization of pseudovirus) [11] | IC95 (neutralization of pseudovirus) [11] | IC90 (neutralization of pseudovirus) [14] | IC95 (neutralization of pseudovirus) [14] | IC80 (neutralization of pseudovirus) [15] | IC90 (neutralization of pseudovirus) [15] | IC95 (neutralization of pseudovirus) [15] | IC50 (neutralization of pseudovirus) [16] | IC80 (neutralization of pseudovirus) [16] | IC90 (neutralization of pseudovirus) [16] | IC95 (neutralization of pseudovirus) [16] | IC50 (neutralization of pseudovirus) [17] | IC80 (neutralization of pseudovirus) [17] | IC90 (neutralization of pseudovirus) [17] | IC95 (neutralization of pseudovirus) [17] | IC50 (neutralization of pseudovirus) [19] | IC80 (neutralization of pseudovirus) [19] | IC90 (neutralization of pseudovirus) [19] | IC95 (neutralization of pseudovirus) [19] | IC90 (neutralization of pseudovirus) [20] | IC95 (neutralization of pseudovirus) [20] | IC50 (neutralization of pseudovirus) [21] | IC80 (neutralization of pseudovirus) [21] | IC90 (neutralization of pseudovirus) [21] | IC95 (neutralization of pseudovirus) [21] | IC50 (neutralization of pseudovirus) [22] | IC80 (neutralization of pseudovirus) [22] | IC90 (neutralization of pseudovirus) [22] | IC95 (neutralization of pseudovirus) [22] | IC50 (neutralization of pseudovirus) [23] | IC80 (neutralization of pseudovirus) [23] | IC90 (neutralization of pseudovirus) [23] | IC95 (neutralization of pseudovirus) [23]
0.122 µg/mL: IC90 (neutralization of pseudovirus) [18]
6.79 µg/mL: IC50 (neutralization of pseudovirus) [15]
0.253 µg/mL: IC80 (neutralization of pseudovirus) [12]
0.139 µg/mL: IC90 (neutralization of pseudovirus) [9]
2.16 µg/mL: IC50 (neutralization of pseudovirus) [2]
0.136 µg/mL: IC90 (neutralization of pseudovirus) [13]
0.0183 µg/mL: IC50 (neutralization of pseudovirus) [13]
0.268 µg/mL: IC95 (neutralization of pseudovirus) [13]
